Laboratory results reported in article PMC11333002, “Molecular dynamics simulations reveal how vinculin refolds partially unfolded talin rod helices to stabilize them against mechanical force” (PLOS Computational Biology, 2024).

Tests used:
[1] = Size exclusion chromatography, oligomeric state; type: physicochemical; details: 100 μL at 100 μM, Superdex S200 Increase 10/300, PBS pH 7.4 with 5 mM DTT, 280 nm
Protocol: Samples of 100 μL protein at 100 μM protein concentration were injected onto a Superdex G-200 increase 10/300 (GE Healthcare) at 0.75 mL/min in PBS pH 7.4 (supplemented with 5 mM DTT) using an AKTA Pure (GE Healthcare), monitoring absorbance at 280 nm.

[2] = biological target: mouse talin1 R1 VBS (H4) peptide; assay: Fluorescence polarisation binding of VD1 to VBS peptide; details: fluorescein-labelled talin1 H4 peptide 700 nM, 2-fold serial dilution of protein, 25°C, triplicate, one-site total binding
Protocol: The mouse talin1 R1 VBS (H4) peptide (C-[…]) was synthesized by GLBiochem (Shanghai) with a non-native, N-terminal cysteine residue. The peptide was coupled with a maleimide-fluorescein dye (Thermo Fisher Scientific) following the manufacturers protocol. Assays were performed in triplicate with a 2-fold serial dilution of protein, with VBS peptide at 700 nM. Fluorescence polarization was measured using a CLARIOstar plate reader (BMGLabTech) at 25°C (excitation: 482 ± 8 nm; emission: 530 ± 20 nm). Data were analyzed using GraphPad Prism 8 software and Kd values were generated using the one-site total binding equation.

[3] = system: talin1 H12 R3; assay: Biosensor analysis (biolayer interferometry, Octet RED384); type: binding; details: immobilized biotinylated H12 R3, VD1 16 μM to 15.6 nM, 28°C, pH 7.4, association 600 s, dissociation 1200 s, global fit
Protocol: Solid-phase synthesized talin1 H12 R3 (C-[…]) with free N-terminal cysteine was labelled with maleimide-PEG2-biotin (Thermo Fisher Scientific A39261). Lyophilized peptide was dissolved in PBS pH 7.4 and reduced at 100 μM peptide concentration with 250 μM TCEP in PBS supplemented with 0.25% Triton-X100 for 10 min at RT. Maleimide-PEG2-biotin was added at 5-fold molar excess (500 μM) and incubation continued for 2 hours at RT, mixing at 30 rpm. The reaction was quenched with β-mercaptoethanol added at 5-fold molar excess over maleimide-PEG2-biotin (2.5 mM) for 20 min at RT. Biotin-labelled peptide was purified using a PD10 desalting column (G25 resin, Cytiva Life Sciences) equilibrated with PBS. Elution fractions containing biotinylated peptide were identified using PageBlue-staining (Thermo Fisher Scientific) of glutaraldehyde-fixed (5%, 2 hours) Bolt BisTris Plus 4–12% SDS-PAGE gels (Thermo Fisher Scientific). The concentration of pooled elution fractions was determined using Pierce BCA microplate assay (Thermo Fisher Scientific) measured with Victor Nivo at 562 nm (PerkinElmer). Aliquoted peptide was flash-frozen with liquid nitrogen and stored at -80°C.
The binding and dissociation kinetics of recombinant WT and Q19S vinculin VD1 to talin1 H12 R3 were determined using ForteBio Octet RED384. […]

[4] = Circular dichroism thermal denaturation; type: physicochemical; details: 0.45 mg/mL protein, PBS pH 7.4, 222 nm, 20–90°C
Protocol: The VD1 domain of mouse vinculin (mVD1) was obtained as a codon-optimized synthetic gene in pET151 (GeneArt). The Q19S point mutation was introduced by site-directed mutagenesis and the sequence was verified.
Proteins were purified by nickel-affinity chromatography, followed by anion exchange chromatography. Briefly, cells were thawed, supplemented with 1 mM PMSF and 0.2% v/v Triton X-100 and lysed by sonication. Cell debris were removed by centrifugation and the supernatant was filtered and loaded onto a 5 mL HisTrap HP column (Cytiva) using an AKTA Start (GE Healthcare). The column was washed with buffer containing 50 mM Tris-HCl pH 8, 600 mM NaCl, 30 mM imidazole, 4 mM MgCl2, 4 mM ATP, 5% v/v glycerol, 0.2% v/v Triton X-100 and bound protein was eluted across a 75 mL linear gradient of 0–300 mM Imidazole. Fractions containing mVD1 were pooled, supplemented with AcTEV protease (Invitrogen) to remove the His-Tag and dialyzed against 20 mM Tris-HCl pH 8, 50 mM NaCl. Protein was loaded onto a 5 mL HiTrap Q (Cytiva), eluted across a 75 mL linear gradient of 50–750 mM NaCl, dialyzed against phosphate buffered saline (PBS) pH 7.4, snap-frozen in liquid nitrogen and stored at -80°C.
Circular dichroism was performed using a JASCO J-715 spectropolarimeter with 0.45 mg/mL protein samples in PBS pH 7.4. […]

Kd [2]: 350 nM
B1: wild-type VD1: VD1 domain of mouse vinculin; in simulations vinculin head domain 1, residues 1–252 (protein, UniProt Q64727 1-252, looked up, fragment)
chain: MPVFHTRTIESILEPVAQQISHLVIMHEEGEVDGKAIPDLTAPVAAVQAAVSNLVRVGKETVQTTEDQILKRDMPPAFIKVENACTKLVQAAQMLQSDPYSVPARDYLIDGSRGILSGTSDLLLTFDEAEVRKIIRVCKGILEYLTVAEVVETMEDLVTYTKNLGPGMTKMAKMIDERQQELTHQEHRVMLVNSMNTVKELLPVLISAMKIFVTTKNSKNQGIEEALKNRNFTVEKMSAEINEIIRVLQLTS
modifications: VD1 domain
oligomeric state in solution [1]: monomeric in solution | binding and dissociation kinetics (KD, kon, koff) [3]: did not reveal significant differences in the binding or dissociation kinetics | melting temperature, Tm [4]: 60 °C
